Results on 16 sequences are retold here after the supplement of paper PMC9170038.

The series relates to MS2 coat protein. The series is described as follows: apparent KD of MS2 coat protein; higher = weaker reporter binding. As to conditions: Eterna round: R107. Here is the method:
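RNA-MaP round R107: designed RNA switches with theophylline, tryptophan, arginine or FMN aptamers are transcribed on-chip within common flanks. They are titrated with SNAP-549-labelled MS2 coat protein in RNA-MaP buffer (100 mM Tris pH 7.5, 80 mM KCl, 4 mM MgCl2), without ligand or with the indicated ligand. Median apparent KD per design.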

The mark [1] stands for this setting: input ligand: theophylline 20 uM.
Setting [2] is: input ligand: tryptophan 2.4 mM.
Where [3] appears, read: input ligand: theophylline 2 mM.

As to “ACAUGUCUUAUAGAUACCAGACAGGACAUGAGGAUCACCCAUGUAAUGUAUACAUGCAGAGUCCCUUGGCAGCUAAGGUCAUAGA [#26 Same State - Theophylline B]”, the “apparent KD of MS2 coat protein” value was 54.6 nM (input ligand: arginine 13.2 mM), 110 nM under setting [1] and 92.8 nM under setting [2].
The corresponding values for “ACAUUAGUUGGCGAUACCAGCUAUAGGCCUUCUGGGCGACAUGAGGAUCACCCAUGUGAUGGCCCUUGGCAGCGCUGAUUGAUGU [SSTheo B #29]” are 65.6 nM, 167 nM and 182 nM.
On to “ACAUUGCGCACGGCCGCCACUGGCUAUAGAUUUAUAGCAUUAAUGAACAUGAGGAUCACCCAUGUCAGGACCGGGUGCGAACCAU [SSTryp B #9]”, for which the “apparent KD of MS2 coat protein” value is, setting by setting: (input ligand: arginine 13.2 mM) 14 nM; under setting [1], 22.7 nM; under setting [3], 27.6 nM.
As for “ACCAGCACACAUGAUACCAGCGACAUGAGGAUCACCCAUGUACGGCGUGUAUCGAAAGGUUGCCCUUGGCAGCAUGAUAGUGCUA [Ratiarla]”, the “apparent KD of MS2 coat protein” value reads like this: (input ligand: arginine 13.2 mM) 14.5 nM; under setting [1], 28.2 nM; under setting [2], 12.8 nM.
On to “ACCGCAUCCGUAUAGGAUGCGGGCCAUGAAGGAGCGUGGGAAACCACAGGUAGGUCGCAUGGGUUACAUGAGGAUCACCCAUGUG [Jaws]”, for which the “apparent KD of MS2 coat protein” value stood at 26.4 nM (input ligand: arginine 13.2 mM); 166 nM (input ligand: none); 517 nM under setting [1]; 585 nM under setting [3]; 534 nM under setting [2].
Turning to “ACCUAAGCCACAGAUACCAGAGUAAUAGGCCAAUUUCAAAACAUGAGGAUCACCCAUGUACUCCCUUGGCAGCUGCGAAUCGAAA [theeternabot_exclusion_MS2_Theo_B_30]”, the “apparent KD of MS2 coat protein” value runs as follows: (input ligand: arginine 13.2 mM) 11.1 nM; under setting [1], 13.6 nM; under setting [2], 10.3 nM.
“ACCUGUACGAAAAGUGCAGGACAUGGAAAUCGAGGACCGGUACGGCCGCCACUCGUAUAAAACAAGUGGAUCACCCUUGUCCAUG [TrypAS 2 #AlternativeMS2 #Zipper #StaticStem]”: the “apparent KD of MS2 coat protein” value reads like this: (input ligand: arginine 13.2 mM) 320 nM; (input ligand: none) 773 nM; under setting [1], 960 nM; under setting [3], 1500 nM; under setting [2], 1360 nM.
Turning to “ACCUGUACGAAAAGUGCAGGACAUGGUAAACGAGGACCGGUACGGCCGCCACUCGAAUAACAAGUGGAUCACCCUUGUAACCAUG [TrypAS 5 #AlternativeMS2 #Zipper #StaticStem]”, the “apparent KD of MS2 coat protein” value by setting is: (input ligand: arginine 13.2 mM) 39.6 nM; (input ligand: none) 223 nM; under setting [1], 573 nM; under setting [3], 3020 nM; under setting [2], 1090 nM.
With “ACGAAACAAGCGGCCGCCACUUCGUGGUGCUAAGGCUUGAUACUACAUGAGGAUCACCCAUGUCGAAGGACCGGGCUUGCGACUG [theeternabot_sameState_MS2_Trp_B_33]”, the “apparent KD of MS2 coat protein” value runs as follows: (input ligand: arginine 13.2 mM) 43.4 nM; under setting [1], 80 nM; under setting [3], 60 nM.
As to “ACGAACGAUAGUGAUACCAGACGUACAUGAGGAUCACCCAUGUUAUACACAUGGUUUAUUGUCCCUUGGCAGCACGUUAAGUUCG [JR_ExcTheophyB_Sub005]”, the “apparent KD of MS2 coat protein” value is, setting by setting: (input ligand: arginine 13.2 mM) 98.5 nM; under setting [1], 274 nM; under setting [2], 289 nM.
The corresponding values for “ACGAUAGGACAUGAGGAUCACCCAUGUGAUACCAGCCUGGAAACAGGCCCUUGGCAGCACAAAUACUCCAGAAACCUAUCGAAUA [TheoAX2 #MicroSwitchBubble]” are 124 nM, 294 nM and 273 nM.
Take “ACGCGUCAAGAGUAAAAUCCGUCAAGUGAUACCAGCCACAACGUAGGCCCUUGGCAGCACAUGAGGAUCACCCAUGUAAUAAGGA [Gedigerace]”: the “apparent KD of MS2 coat protein” value reads like this: (input ligand: arginine 13.2 mM) 42.4 nM; (input ligand: none) 33.3 nM; under setting [1], 53.4 nM; under setting [3], 670 nM; under setting [2], 22.5 nM.
Turning to “ACUACGAAGACGGCCGCCACUGAUAUUCGUAGAUCCAUCAAUACAUGAGGAUCACCCAUGUAUAUCAGGACCGGGUCAAGAUGGU [Tryp B Ex t6]”, the “apparent KD of MS2 coat protein” value by setting is: (input ligand: arginine 13.2 mM) 23.3 nM; under setting [1], 39.2 nM; under setting [3], 28.2 nM.
For “ACUAGAGGUGGAAGGAGCGGGAGACAUGAGCAUCACAUGAGGAUCACCCAUGUAGGAUCAUCCCAGGUAGGUCGCCAUGUCGAAA [h.hgmullin]”, the “apparent KD of MS2 coat protein” value reads like this: (input ligand: arginine 13.2 mM) 88.4 nM; (input ligand: none) 363 nM; under setting [1], 290 nM; under setting [3], 218 nM; under setting [2], 173 nM.
For “ACUAGCGCACAUGAUACCAGCGACAUGAGGAUCACCCAUGUACGGCGUGUAUCGAAAGGUUGCCCUUGGCAGCAUGAUAGCGCUG [Cebiri]”, the “apparent KD of MS2 coat protein” value stood at 12.6 nM (input ligand: arginine 13.2 mM), 26.1 nM under setting [1] and 14.5 nM under setting [2].
As for “ACUCGGCAUCAUGAUACCAGAGAGCCCGAGAUGCCUUAACACAUGAGGAUCACCCAUGUACUCCCUUGGCAGCAUCAUGCACUAU [theeternabot_exclusion_MS2_Theo_B_31]”, the “apparent KD of MS2 coat protein” value is 16.6 nM (input ligand: arginine 13.2 mM), 29 nM under setting [1] and 22.7 nM under setting [2].
